Literature values, collected in paper PMC5337525.

Molecular target: calmodulin (UniProt P0DP23)

Substance: β-arrestin 1 (from UniProt P17870)
- Kd: 7 µM
